Measured values published in patent US20130095492A1.

How the values were obtained:
[1] = target: full-length recombinant tau (human) (UniProt P10636); test: sandwich immuno-PCR, Tau1 capture on plate, HT7-DNA conjugate detection, recombinant tau at 16 pg/ml in synthetic serum
[2] = target: full-length recombinant tau (human) (UniProt P10636); test: sandwich immuno-PCR, Tau1 capture on plate, HT7-DNA conjugate detection, recombinant tau at 80 pg/ml in synthetic serum
[3] = target: full-length recombinant tau (human) (UniProt P10636); test: sandwich immuno-PCR, Tau1 capture on plate, HT7-DNA conjugate detection, recombinant tau at 3.2 pg/ml in synthetic serum
[4] = target: full-length recombinant tau (human) (UniProt P10636); test: sandwich immuno-PCR, Tau1 capture on plate, HT7-DNA conjugate detection, recombinant tau at 400 pg/ml in synthetic serum
[5] = target: full-length recombinant tau (human) (UniProt P10636); test: sandwich immuno-PCR, Tau1 capture on plate, HT7-DNA conjugate detection, recombinant tau at 0.64 pg/ml in synthetic serum
[6] = target: full-length recombinant tau (human) (UniProt P10636); test: sandwich immuno-PCR, Tau1 capture on plate, HT7-DNA conjugate detection, recombinant tau at 2000 pg/ml in synthetic serum
[7] = target: full-length recombinant tau (human) (UniProt P10636); test: sandwich immuno-PCR, Tau1 capture on plate, HT7-DNA conjugate detection, recombinant tau at 10000 pg/ml in synthetic serum

UniProt P10636, sequence (P10636 other isoform, or with tags, fused parts or gaps): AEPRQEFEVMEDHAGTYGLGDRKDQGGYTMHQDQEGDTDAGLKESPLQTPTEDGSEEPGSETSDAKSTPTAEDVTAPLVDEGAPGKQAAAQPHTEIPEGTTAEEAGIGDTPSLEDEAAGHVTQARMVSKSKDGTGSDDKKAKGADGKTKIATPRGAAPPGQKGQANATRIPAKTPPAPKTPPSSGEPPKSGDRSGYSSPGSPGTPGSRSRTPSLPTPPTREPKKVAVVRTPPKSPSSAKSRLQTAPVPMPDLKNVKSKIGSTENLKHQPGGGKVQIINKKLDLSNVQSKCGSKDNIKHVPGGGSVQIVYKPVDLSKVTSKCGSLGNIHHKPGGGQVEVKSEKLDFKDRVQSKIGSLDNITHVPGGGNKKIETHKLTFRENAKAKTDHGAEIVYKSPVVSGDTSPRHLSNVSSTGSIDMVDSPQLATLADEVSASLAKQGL

delta counts [1]: 21.7 delta counts | delta counts [2]: 23.6 delta counts | delta counts [3]: 20.6 delta counts | delta counts [4]: 26.3 delta counts | delta counts [5]: 20.3 delta counts | delta counts [6]: 29 delta counts | delta counts [7]: 31.7 delta counts
Substance: Tau1 (antibody)
